Publication PMC12628836, “Lactobacillus rhamnosus YQ001 binds with GII.4 human noroviruses and inhibits viral replication in zebrafish larvae” (Applied and Environmental Microbiology, 2025)

Molecular target: recombinant C2JX39 (DNA topoisomerase 4 subunit A) (Lactobacillus rhamnosus YQ001)
Test: ELISA; attachment factors coated at 280.0 pmol/mL in carbonate-bicarbonate buffer overnight at 4 C, blocked with 1.0% BSA; P protein (GI.1 or GII.4) 10.0 ug/mL, 1 h at 37 C; detected with anti-HuNoV monoclonal antibodies; positive when S/N >= 2.0
Conditions: both partners purified

B1: GII.4 HuNoV P protein (domain or fragment)
chain: KPFTVPILTVEEMTNSRFPIPLEKLFTGPSGAFVVQPQNGRCTTDGVLLGTTQLSPVNICTFRGDVTHIAGSRNYTMNLASLNWNNYDPTEEIPAPLGTPDFVGKIQGLLTQTTKGDGSTRGHKATVYTGSAPFTPKLGSVQFSTDTENDFETHQNTKFTPVGVIQDGSTTHRNEPQQWVLPSYSGRNVHNVHLAPAVAPTFPGEQLLFFRSTMPGCSGYPNMDLDCLLPQEWVQHFYQEAAPAQSDVALLRFVNPDTGRVLFECKLHKSGYVTVAHTGQHDLVIPPNGYFRFDSWVNQFYTLAPM
Q: For B1, which S/N ratio is on record?
A: 16.9
